# Results reported in US20070253950A1 (Pfizer, published 2007).
# Target: T1, human RAGE-Fc fusion protein (human, UniProt Q15109 23-344)
# T1 construct: amino acids 1-344 of human RAGE appended to the Fc domain of human IgG; also called hRAGE-Fc; huRAGE-Fc
# Assay: ligand competition ELISA: HMGB1 coated, hRAGE-Fc pre-mixed with antibody, bound hRAGE-Fc detected with anti-huIgG-HRP; blocked ligand HMGB1
# Method: Wells were washed and blocked as described above and exposed to 100 μl of pre-incubated mixtures of RAGE-Fc or TrkB-Fc (a non-specific Fc control), at 0.1 μg/ml, plus various forms of the indicated antibody preparation (dilutions of immune sera, hybridoma supernatants or purified antibodies) for 1 hour at room temperature.
binder,measurement,value
"XT-H2 (antibody, V domains shown, also called 1hRAGEP3/16) VH: QVQLQQSGAELAKPGASVKMSCKASGYTFTTYWMHWVKQRPGQGLYWIGYINPSTGYTEYNQKFKDKATLTADKSSSTAYMQLSSLTSEDSAVYYCARWAGYTIDYWGQGTSVTVSS VL: DVVLTQTPLSLPVNIGDQASISCKSTKSLLNSDGFTYLDWYLQKPGQSPQLLIYLVSDRFSGVPDRFSGSGSGTDFTLTISRVEAEDLGVYYCFQSNSLPLTFGSGTKLEIK",IC50 (read off the curve),~0.1 µg/mL
